Columns and labels:
Ad-VEGF-infected HUVEC = assay: VEGF-induced HUVEC budding (sprouting) on collagen gel; format: cell-based, human; conditions: for budding / morphology of HUVEC with Notch fusion protein alone: no Ad-VEGF
Procedure: For making collagen gels, an ice-cold solution of porcine type I collagen (Nitta gelatin, Tokyo, Japan) was mixed with 10xRPMI1640 medium and neutralization buffer at the ratio of 8:1:1. 400 μl aliquots of collagen gel were then added to 24-well plates and allowed to gel for at least 1 hour at 37° C. Following adenoviral infection (above), HUVEC was harvested and plated at 1.3×10^5 cells per well onto the top of the collagen gel in 24-well plates in 0.8 ml of EGM2 medium. HUVEC became nearly confluent 48 hours after plating. After seeding, medium was changed every 2 days for 1 week. Sprouting was observed and photographs taken after 8 days with an Olympus digital camera mounted to a microscope. For quantification of the number of sprouts, 5 fields per each well were randomly selected and sprouting was counted under microscopy in a blind manner by two investigators.
In this experiment, we evaluated the effect of Notch decoy on induction of budding (initiation of sprouting) by over-expressed VEGF-165 in HUVEC. When Ad-VEGF-infected HUVEC were cultured on type collagen gel for 8 days, budding was induced into collagen gel.

MMP9 [1] = assay: gelatin zymography of conditioned medium, MMP-9; format: cell-based, human; conditions: co-transduction with Ad-VEGF, fibrin gel
Procedure: (§1) FIGS. 24A-B show gelatin zymography analysis of MMP-9 and MMP-2 activity stimulated by VEGF in HUVEC. […] Transduced HUVEC were cultured on fibrin gel on the indicated day (i.e. D2, D4, D6, D8). Similar results were also obtained by using collagen gel, although induction of MMP-9 was stronger on fibrin gel than collagen gel (data not shown). […] HUVEC were transduced with Ad-N1ECDFc at the indicated doses and condition medium was collected from HUVEC cultured on collagen gel at day 4. FIGS. 24C-D show up-regulation of MMP-9 and MT1-MMP with Notch signaling. HUVEC were transduced with either Ad-LacZ or Ad-N1IC at 40 MOI. Numbers show PCR cycles. […] HUVEC were transduced with Ad-VEGF in the absence or presence of co-transduction of Ad-N1ECDFc at 40 MOI each. Ad-LacZ was co-transduced to make the same total amount of adenovirus at 80 MOI.
(§2) Requisition of MMPs for angiogenic sprouting has been established by synthetic MMP inhibitors (16). GM6001 is one broad inhibitor against MMPs including MMP2, MMP9 and MT1-MMP (18).

MMP9 [2] = assay: RT-PCR analysis of MMP9 expression in HUVEC; format: cell-based, human
Procedure: as §1, §2

MT1-MMP = assay: RT-PCR analysis of MT1-MMP expression in HUVEC; format: cell-based, human
Procedure: as §1, §2

[3] = test system: VEGF-induced angiogenesis; assay: mouse Dorsa Air Sac (DAS) assay; format: in vivo
Text: These Figures show the role of Notch signaling in VEGF-dependent in vivo angiogenesis. FIGS. 25A-25D show inhibition of VEGF-induced angiogenesis with N1ECDFc in mouse DAS assay. Representative photographs are shown. FIG. 25A show subcutaneous induced angiogenesis with 293/VEGF transfectant versus 293/VEGF also expressing Notch decoy (Notch-based fusion protein) N1ECDFc. […] MDA-MB-231 breast cancer cells produce VEGF (data not shown).

MMP2 = assay: gelatin zymography of conditioned medium, MMP-2; format: cell-based, human; conditions: co-transduction with Ad-VEGF, collagen gel, day 4
Procedure: as §1, §2

HUVEC = HUVEC proliferation (CCK-8 kit); format: cell-based, human; conditions: transduced N1ECDFc, complete medium, 4 days
Procedure: These Figures show proliferation of Ad-VEGF165-transduced HUVEC. HUVEC were transduced with Ad-VEGF165 at the indicated dosages. Ad-LacZ was also co-infected to make the same total amount of adenovirus at a MOI of 40 pfu/cell. HUVEC were suspended in SFM supplemented with 1% FBS and then plated at 1×10^4 cells/well in 24-well multi-wll plates with 0.4 ml of medium. After 4 days, cell numbers were determined using the CCK-8 kit and the results are indicated as the ratio of cell numbers determined to the number of control cells, which were transduced with Ad-GFP at a MOI of 40 pfu/cell. […] Ad-VEGF-transduced HUVEC were treated with SU5416 at the indicated dosages.
These Figures show the effect of alteration of Notch signaling on cell proliferation. The cells were transduced with the indicated adenoviruses. Ad-GFP was also co-infected to make the same total amount of adenovirus at a MOI of 60 pfu/cell. After 4 days, cell numbers were determined using the CCK-8 kit and results are indicated as the ratio of cell numbers determined to the number of control cells, which were transduced with AD-GFP at MOI of 60 pfu/cell. […] Transduced HUVEC were suspended in complete medium and then plated at 1×10^4 cells/well in 24-well multiwell plates with 0.4 ml of indicated medium (□: Ad-N1IC; ▪: Ad-N1ECDFc). […]

[4] = Ad-N1ECDFc infection alone, Ad-LacZ infected HUVEC (data not shown)
[5] = Ad-VEGF-HUVEC, co-transduction at 40 MOI each
[6] = in vivo assays to model VEGF-induced skin neovascularization

B1: N1ECDFc: Notch-based fusion protein or decoy: Notch1 extracellular domain EGF repeats fused to Fc; expressed from plasmid or adenovirus (Ad-N1ECDFc) (protein)
chain: ARGLRCSQPSGTCLNGGRCEVANGTEACVCSGAFVGQRCQDPSPCLSTPCKNAGTCYVVDHGGIVDYACSCPLGFSGPLCLTPLANACLANPCRNGGTCDLLTLTEYKCRCPPGWSGKSCQQADPCASNPCANGGQCLPFESSYICGCPPGFHGPTCRQDVNECSQNPGLCRHGGTCHNEIGSYRCACRATHTGPHCELPYVPCSPSPCQNGGTCRPTGDTTHECACLPGFAGQNCEENVDDCPGNNCKNGGACVDGVNTYNCRCPPEWTGQYCTEDVDECQLMPNACQNAGTCHNSHGGYNCVCVNGWTGEDCSDNIDDCASAACFQGATCHDRVASFYCECPHGRTGLLCHLNDACISNPCNEGSNCDTNPVNGKAICTCPRGYTGPACSQDVDECALGANPCEHAGKCLNTLGSFECQCLQGYTGPRCEIDVNECISNPCQNDATCLDQIGEFQCICMPGYEGVYCEINTDECASSPCLHNGRCVDKINEFLCQCPKGFSGHLCQYDVDECASTPCKNGAKCLDGPNTYTCVCTEGYTGTHCEVDIDECDPDPCHIGLCKDGVATFTCLCQPGYTGHHCETNINECHSQPCRHGGTCQDRDNYYLCLCLKGTTGPNCEINLDDCASNPCDSGTCLDKIDGYECACEPGYTGSMCNVNIDECAGSPCHNGGTCEDGIAGFTCRCPEGYHDPTCLSEVNECNSNPCIHGACRDGLNGYKCDCAPGWSGTNCDINNNECESNPCVNGGTCKDMTSGYVCTCREGFSGPNCQTNINECASNPCLNQGTCIDDVAGYKCNCPLPYTGATCEVVLAPCATSPCKNSGVCKESEDYESFSCVCPTGWQGQTCEIDINECVKSPCRHGASCQNTNGSYRCLCQAGYTGRNCESDIDDCRPNPCHNGGSCTDGVNAAFCDCLPGFQGAFCEEDINECATNPCQNGANCTDCVDSYTCTCPTGFNGIHCENNTPDCTESSCFNGGTCVDGINSFTCLCPPGFTGSYCQYDVNECDSRPCLHGGTCQDSYGTYKCTCPQGYTGLNCQNLVRWCDSAPCKNGGKCWQTNTQYHCECRSGWTGFNCDVLSVSCEVAAQKRGIDVTLLCQHGGLCVDEEDKHYCHCQAGYTGSYCEDEVDECSPNPCQNGATCTDYLGGFSCKCVAGYHGSNCSEEINECLSQPCQNGGTCIDLTNTYKCSCPRGTQGVHCEINVDDCHPPLDPASRSPKCFNNGTCVDQVGGYTCTCPPGFVGERCEGDVNECLSNPCDPRGTQNCVQRVNDFHCECRAGHTGRRCESVINGCRGKPCRNGGVCAVASNTARGFICRCPARFEGATCENDARTCGSLRCLNGGTCISGPRSPTCLCLGSFTGPECQFPASSPCVGSNPCYNQGTCEPTSESPFYRCLCPAKFNGLLCHILDYSFTDLGPG
modifications: left off: a dimerising Fc or GST
- cell number in VEGF-induced budding assay (Ad-VEGF-infected HUVEC; FIG. 22I): without affecting cell number
- budding of Ad-VEGF-HUVEC (Ad-VEGF-infected HUVEC; collagen gel): clearly inhibited
- budding / morphology of HUVEC with Notch fusion protein alone (Ad-VEGF-infected HUVEC): Neither Ad-LacZ or Ad-N1ECDFc-transduced HUVEC formed buds
- budding / morphology of HUVEC with Notch fusion protein alone (Ad-VEGF-infected HUVEC; listed as Notch fusion protein): less effect on morphology
- induction and activation of MMP9 (MMP9 [1]): inhibition
- expression of MMP9 (MMP9 [2]; [4]): did not affect
- VEGF-induced up-regulation of MMP9 mRNA (MMP9 [2]; [5]): inhibited
- expression of MT1-MMP (MT1-MMP; [4]): did not affect
- VEGF-induced up-regulation of MT1-MMP mRNA (MT1-MMP; [5]): inhibited
- in vivo angiogenesis induced by MDA-MB-231 ([3]; adenovirus mediated expression of N1ECDFc, compared to adenovirus expressing LacZ): clearly inhibited
- in vivo angiogenesis induced by 293/VEGF ([3]; coexpression of N1ECDFc, compared to 293/VEGF alone): clearly inhibited
- VEGF-induced neo-vascularization [3, 6]: blocks
- induction of VEGFR-1 expression [3, 6]: blocks
- activation of MMP2 (MMP2): inhibition
- proliferation of HUVEC (HUVEC): did not clearly alter

— patent publication US9475855B2, “Human Notch3 based fusion proteins as decoy inhibitors of Notch3 signaling” (THE TRUSTEES OF COLUMBIA UNIVERSITY IN THE CITY OF NEW YORK, priority 2008, dated 2016)
